The results in this text go back to patent US20250270343A1.

The assay deals with unidentified GPNMB ligand(s) on the surface of SVEC4-10 cells. Briefly: flow cytometry, soluble moGPNMB-Fc on SVEC4-10 cells, PE anti-IgG Fc secondary; thin-line histogram shifted right with a tail to about 10^4, thick-line control histogram near 0. (Flow cytometry measures light scatter and fluorescence of single cells or particles in a stream.)

B1: soluble mouse GPNMB-Fc polypeptide (Fc of human IgG1 or mouse IgG2A, not specified for the assay) (Fc fusion, UniProt Q99P91 23-502, looked up, not shown: a dimerising Fc or GST)
chain: KRFRDVLGHEQYPDHMREHNQLRGWSSDENEWDEHLYPVWRRGDGRWKDSWEGGRVQAVLTSDSPALVGSNITFVVNLVFPRCQKEDANGNIVYEKNCRNDLGLTSDLHVYNWTAGADDGDWEDGTSRSQHLRFPDRRPFPRPHGWKKWSFVYVFHTLGQYFQKLGRCSARVSINTVNLTAGPQVMEVTVFRRYGRAYIPISKVKDVYVITDQIPVFVTMSQKNDRNLSDEIFLRDLPIVFDVLIHDPSHFLNDSAISYKWNFGDNTGLFVSNNHTLNHTYVLNGTFNLNLTVQTAVPGPCPPPSPSTPPPPSTPPSPPPSPLPTLSTPSPSLMPTGYKSMELSDISNENCRINRYGYFRATITIVEGILEVSIMQIADVPMPTPQPANSLMDFTVTCKGATPMEACTIISDPTCQIAQNRVCSPVAVDGLCLLSVRRAFNGSGTYCVNFTLGDDASLALTSTLISIPGKDPDSPLRAVN
On to B1, for which the PE-A subset (share of cells in the drawn gate, unit not given) turned out to be 70.1.
